Measured values: US20240002497A1 (Merck Sharp & Dohme, published 2024)

Experiments:
[1] = molecular target: T1, huNav1.7α+β1 (human, UniProt Q15858 1-1988; Q07699 19-218); assay: binding FACS, HEK293 cells
T1 construct: also called huNav1.7-beta1; HEKa/β1
Protocol: (§1) Binding of the ISVDs to cell-expressed Nav1.7α was detected via murine anti-Flag (Sigma, catalog #F1804). Briefly, cells were resuspended in FACS buffer (PBS, 10% FBS, NaN₃) and transferred to a 96-well V-bottom plate at 1×10^5 cells/well. Purified FLAG3-tagged ISVD was diluted in FACS buffer and added to the cells for 30 minutes at 4° C. […] Prior to the read-out, the samples were resuspended in 1 μg/mL propidium iodide (Sigma, catalog #P4170) to exclude dead cells. Between each step, the cells were centrifuged for 5 minutes at 200 grams and washed with 100 μL/well FACS buffer.
(§2) Crude periplasmic extracts containing ISVDs from phage display selections (as described above) were screened in FACS for binding to huNav1.7α but not to huNav1.5a. […] As used in Table 8, the drawings, and throughout the description, Navβ1, Navβ2, and Navβ3 are human homologs unless specifically identified otherwise.

[2] = molecular target: T2, huNav1.7α+β1-β2-β3 (human, UniProt Q15858 1-1988; Q07699 19-218; O60939 30-215; Q9NY72 23-215); assay: binding FACS, CHO FlpIn cells
T2 construct: 5N11S variant; also called huNav1.7-beta1-beta2-beta3; huNav1.7α+Navβ1-Navβ2-Navβ3
Protocol: as §1, §2

[3] = molecular target: T3, rhNav1.7α+β1-β2-β3 (rhesus monkey α subunit with human β …); assay: binding FACS, CHO FlpIn cells
T3 construct: P2A cleaves it into α, β1, β2, β3; also called rhNav1.7-beta1-beta2-beta3
Protocol: as §1, §2

[4] = molecular target: T2, huNav1.7α+β1-β2-β3; assay: binding FACS, HEK FlpIn cells
Protocol: as §1, §2

[5] = molecular target: T4, huNav157chimera14+β1-β2-β3 (human, UniProt Q07699 19-218; O60939 30-215; Q9NY72 23-215); assay: binding FACS, HEK FlpIn cells
T4 construct: HEK FlpIn line; also called huNav157 chimera 14-beta1-beta2-beta3; Nav157ch14-β1-β2-β3
Protocol: as §1, §2

[6] = molecular target: T5, huNav1.5α+β1-β2-β3 (human, UniProt Q14524 1-2016; A5A6L6 19-218; O60939 30-215; Q2KI11 23-215); assay: binding FACS, HEK FlpIn cells
T5 construct: in the cell P2A cleaves it into α, β1, β2, β3; also called huNav1.5-beta1-beta2-beta3
Protocol: as §1, §2

[7] = molecular target: T6, huNav1.7(N146S, V194I, F276V, R277Q, E281V, V331M, E504D, D507E, S508N, N533S)-β1-β2-β3 (human, UniProt Q15858 1-1988; Q07699 19-218; O60939 30-215; Q9NY72 23-215); assay: FACS on transiently transfected HEK293T cells
T6 construct: Transiently on HEK293T cells; The text prints V1941 for V194I; also called chimeric variant of huNav1.7α with all DI huNav1.7α-rhNav1.7α polymorphisms
Protocol: as §1
FACS binding studies (as described above) were performed on HEK293T cells transiently transfected with a chimeric variant of huNav1.7α in which all the huNav1.7α-rhNav1.7α polymorphisms of DI are present (N146S, V1941, F276V, R277Q, E281V, V331M, E504D, D507E, S508N, N533S). Replacing the huNav1.7α DI sequence for that of rhNav1.7α is sufficient to abolish the binding of F0103262CO2, F0103265B04, F0103262B06, and F0103265A11 to huNav1.7α, recapitulating the absence of binding on rhNav1.7α (see FIGS. 21A-21B).

[8] = molecular target: T7, huNav1.3α (human, UniProt Q9NY46 1-2000); assay: binding FACS on stable huNav1.x paralog HEK293T cell lines
T7 construct: also called huNav1.3 (alpha subunit)

[9] = molecular target: T8, huNav1.4α (human, UniProt P35499 1-1836); assay: as above
T8 construct: also called huNav1.4 (alpha subunit)
T8 sequence (P35499 whole entry): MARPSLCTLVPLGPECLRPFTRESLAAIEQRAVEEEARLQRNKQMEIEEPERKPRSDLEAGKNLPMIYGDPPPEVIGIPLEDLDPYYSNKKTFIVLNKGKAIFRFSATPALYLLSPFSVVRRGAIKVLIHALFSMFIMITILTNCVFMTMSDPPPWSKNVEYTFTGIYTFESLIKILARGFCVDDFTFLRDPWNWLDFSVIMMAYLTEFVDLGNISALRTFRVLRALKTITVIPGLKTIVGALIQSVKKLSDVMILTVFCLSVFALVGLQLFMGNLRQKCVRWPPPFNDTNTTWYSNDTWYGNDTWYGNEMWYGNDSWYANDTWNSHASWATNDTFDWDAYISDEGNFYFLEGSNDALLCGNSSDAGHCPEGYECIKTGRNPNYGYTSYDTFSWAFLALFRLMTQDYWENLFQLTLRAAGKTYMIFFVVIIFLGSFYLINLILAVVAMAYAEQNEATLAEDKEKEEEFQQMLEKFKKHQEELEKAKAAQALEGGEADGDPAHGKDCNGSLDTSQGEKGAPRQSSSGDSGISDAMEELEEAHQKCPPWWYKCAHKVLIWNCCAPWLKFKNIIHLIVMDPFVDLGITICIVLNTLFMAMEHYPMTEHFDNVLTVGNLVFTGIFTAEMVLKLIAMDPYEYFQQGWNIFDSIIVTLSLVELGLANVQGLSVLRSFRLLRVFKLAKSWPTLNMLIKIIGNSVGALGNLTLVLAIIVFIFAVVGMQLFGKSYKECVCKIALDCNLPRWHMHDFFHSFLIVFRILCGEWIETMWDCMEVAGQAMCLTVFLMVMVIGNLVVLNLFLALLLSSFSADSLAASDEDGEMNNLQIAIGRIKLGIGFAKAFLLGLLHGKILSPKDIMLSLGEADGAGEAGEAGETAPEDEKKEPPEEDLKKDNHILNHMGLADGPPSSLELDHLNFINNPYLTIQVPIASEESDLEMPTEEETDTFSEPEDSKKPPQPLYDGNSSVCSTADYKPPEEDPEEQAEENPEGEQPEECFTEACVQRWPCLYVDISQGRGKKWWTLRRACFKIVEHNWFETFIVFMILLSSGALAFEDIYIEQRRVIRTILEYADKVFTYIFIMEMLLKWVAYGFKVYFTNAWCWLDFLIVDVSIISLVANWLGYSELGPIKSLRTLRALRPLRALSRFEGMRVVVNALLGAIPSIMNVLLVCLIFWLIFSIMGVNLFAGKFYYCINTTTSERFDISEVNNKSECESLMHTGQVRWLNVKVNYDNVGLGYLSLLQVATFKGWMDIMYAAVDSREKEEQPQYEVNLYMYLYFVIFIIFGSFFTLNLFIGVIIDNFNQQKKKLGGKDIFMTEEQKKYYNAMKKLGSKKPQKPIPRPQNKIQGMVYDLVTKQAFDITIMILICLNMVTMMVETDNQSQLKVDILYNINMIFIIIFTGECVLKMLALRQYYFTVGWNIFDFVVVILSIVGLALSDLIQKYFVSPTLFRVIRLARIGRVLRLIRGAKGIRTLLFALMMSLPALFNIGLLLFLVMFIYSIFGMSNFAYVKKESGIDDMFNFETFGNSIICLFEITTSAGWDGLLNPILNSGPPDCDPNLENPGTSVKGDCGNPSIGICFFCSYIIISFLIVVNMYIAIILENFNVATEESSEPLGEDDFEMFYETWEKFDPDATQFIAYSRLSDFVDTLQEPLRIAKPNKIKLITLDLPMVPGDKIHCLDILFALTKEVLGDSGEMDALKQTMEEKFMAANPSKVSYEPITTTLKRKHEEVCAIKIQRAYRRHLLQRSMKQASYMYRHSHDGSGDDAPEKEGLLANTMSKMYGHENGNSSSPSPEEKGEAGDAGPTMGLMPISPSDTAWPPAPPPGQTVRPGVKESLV

[10] = molecular target: T9, huNav1.5α (human, UniProt Q14524 1-2016); assay: as above
T9 construct: also called huNav1.5 (alpha subunit)

[11] = molecular target: T10, huNav1.6α (human, UniProt Q9UQD0 1-1980); assay: as above
T10 construct: also called huNav1.6 (alpha subunit)

[12] = molecular target: T11, huNav1.8α (human, UniProt Q9Y5Y9 1-1956); assay: as above
T11 construct: also called huNav1.8 (alpha subunit)
T11 sequence (Q9Y5Y9 whole entry): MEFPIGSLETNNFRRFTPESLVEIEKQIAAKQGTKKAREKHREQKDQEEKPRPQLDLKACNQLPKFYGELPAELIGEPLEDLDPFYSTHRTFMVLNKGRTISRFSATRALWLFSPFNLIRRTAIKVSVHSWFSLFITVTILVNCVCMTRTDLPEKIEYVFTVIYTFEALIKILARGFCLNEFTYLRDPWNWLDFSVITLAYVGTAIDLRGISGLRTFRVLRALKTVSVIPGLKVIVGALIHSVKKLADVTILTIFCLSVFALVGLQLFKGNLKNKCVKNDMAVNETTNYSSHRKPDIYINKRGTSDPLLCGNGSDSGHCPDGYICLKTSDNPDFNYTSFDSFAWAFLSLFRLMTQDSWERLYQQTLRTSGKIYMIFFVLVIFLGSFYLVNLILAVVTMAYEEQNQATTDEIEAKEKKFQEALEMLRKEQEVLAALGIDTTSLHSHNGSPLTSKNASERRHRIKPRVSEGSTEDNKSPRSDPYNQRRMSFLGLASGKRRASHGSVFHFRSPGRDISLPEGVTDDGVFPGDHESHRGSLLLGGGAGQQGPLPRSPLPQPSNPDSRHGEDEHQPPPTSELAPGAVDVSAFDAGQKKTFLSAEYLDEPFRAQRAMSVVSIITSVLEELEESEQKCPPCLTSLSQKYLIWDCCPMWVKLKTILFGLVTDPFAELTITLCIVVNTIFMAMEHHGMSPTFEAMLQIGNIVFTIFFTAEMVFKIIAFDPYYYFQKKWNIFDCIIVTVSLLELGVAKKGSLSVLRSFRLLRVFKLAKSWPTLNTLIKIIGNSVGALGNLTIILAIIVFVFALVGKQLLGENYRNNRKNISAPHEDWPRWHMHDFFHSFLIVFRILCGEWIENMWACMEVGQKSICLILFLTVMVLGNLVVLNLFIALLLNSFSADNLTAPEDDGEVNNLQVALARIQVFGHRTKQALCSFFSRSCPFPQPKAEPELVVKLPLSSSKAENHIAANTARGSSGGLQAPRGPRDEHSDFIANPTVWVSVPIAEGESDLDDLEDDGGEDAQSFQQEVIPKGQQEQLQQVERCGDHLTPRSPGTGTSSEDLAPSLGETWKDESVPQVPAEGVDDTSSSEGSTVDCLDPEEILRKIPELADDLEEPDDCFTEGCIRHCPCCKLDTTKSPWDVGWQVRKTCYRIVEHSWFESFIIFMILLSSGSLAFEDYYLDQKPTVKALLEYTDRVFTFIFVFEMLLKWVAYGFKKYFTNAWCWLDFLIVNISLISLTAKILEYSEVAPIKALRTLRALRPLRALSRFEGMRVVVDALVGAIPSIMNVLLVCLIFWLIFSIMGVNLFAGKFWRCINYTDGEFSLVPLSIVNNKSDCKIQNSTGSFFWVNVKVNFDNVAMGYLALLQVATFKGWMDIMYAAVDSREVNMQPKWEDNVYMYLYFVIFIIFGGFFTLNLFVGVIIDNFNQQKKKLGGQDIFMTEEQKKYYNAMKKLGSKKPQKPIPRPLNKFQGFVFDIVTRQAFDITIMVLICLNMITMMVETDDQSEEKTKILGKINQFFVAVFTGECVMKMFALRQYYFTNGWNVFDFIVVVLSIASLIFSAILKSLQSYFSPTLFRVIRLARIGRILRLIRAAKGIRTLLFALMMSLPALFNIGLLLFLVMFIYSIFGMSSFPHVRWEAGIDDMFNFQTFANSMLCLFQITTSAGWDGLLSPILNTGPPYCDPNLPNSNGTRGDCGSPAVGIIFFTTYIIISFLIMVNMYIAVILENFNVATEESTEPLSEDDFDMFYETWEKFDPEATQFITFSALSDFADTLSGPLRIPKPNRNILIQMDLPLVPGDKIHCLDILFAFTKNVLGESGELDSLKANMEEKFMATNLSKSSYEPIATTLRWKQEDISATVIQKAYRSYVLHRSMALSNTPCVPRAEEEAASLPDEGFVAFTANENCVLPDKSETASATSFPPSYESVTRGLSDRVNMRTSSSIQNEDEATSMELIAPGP

[13] = molecular target: huNav1.1α (human, UniProt P35498 1-2009); assay: as above
[14] = molecular target: T12, huNav1.2α (human, UniProt Q99250 1-2005); assay: as above
T12 construct: also called huNav1.2 (alpha subunit)

[15] = molecular target: T13, huNav157chim14 (human); assay: binding FACS, HEK Flp-In
T13 construct: HEK Flp-In cells; also called huNav157 chimera 14

[16] = molecular target: T14, huNav157chim14-β1-β2-β3 (human); assay: binding FACS, HEK Flp-In
T14 construct: Whole entry; HEK Flp-In cells; also called huNav157 chimera 14-beta1-beta2-beta3

[17] = molecular target: T15, huNav1.5-β1-β2-β3 (human); assay: binding FACS, HEK Flp-In
T15 construct: Whole entry; CHO Flp-In or HEK Flp-In cells; also called huNav1.5-beta1-beta2-beta3

[18] = molecular target: T16, huNav1.7α + β1-β2-β3 (human, UniProt Q15858 1-1988; A5A6L6 19-218; O60939 30-215; Q2KI11 23-215); assay: FACS, CHO Flp-In, competitor 1 µM IRR00092
T16 construct: also called huNav1.7-beta1-beta2-beta3; huNav1.7-β1-β2-β3

[19] = molecular target: T17, rhNav1.7α + β1-β2-β3 (rhesus monkey); assay: FACS, CHO Flp-In, competitor 1 µM IRR00092
T17 construct: also called rhNav1.7-beta1-beta2-beta3; rhNav1.7-β1-β2-β3

[20] = molecular target: T15, huNav1.5-β1-β2-β3; assay: FACS, CHO Flp-In, competitor 1 µM IRR00092
[21] = molecular target: T17, rhNav1.7α + β1-β2-β3; assay: FACS, CHO Flp-In, competitor 1 µM F010300703
[22] = molecular target: T15, huNav1.5-β1-β2-β3; assay: FACS, CHO Flp-In, competitor 1 µM F010300703
[23] = molecular target: T16, huNav1.7α + β1-β2-β3; assay: binding FACS, CHO Flp-In, periplasmic extract
[24] = molecular target: T15, huNav1.5-β1-β2-β3; assay: binding FACS, CHO Flp-In, periplasmic extract
[25] = molecular target: T4, huNav157chimera14+β1-β2-β3; assay: binding FACS with purified FLAG3-HIS6 tagged ISVDs
Protocol: as §1, §2

EC50 [1] | EC50 [2] | binding result [8] | binding result [9] | binding result [11] | binding result [12] | binding result [13] | binding result [14] | MFI [15] | MFI [16] | MFI [18] | MFI [19] | MFI [21] | MFI [23] | Binder | binding result [6] | binding result [10] | MFI [17] | MFI [20] | MFI [22] | MFI [24] | other results
180 nM | 320 nM | no binding | no binding | no binding | no binding | no binding | no binding |  |  |  |  |  |  | F0103262C02 (parental)-FLAG-HIS6 (VHH, also called F0103262CO2; F103262CO2) VHH: EVQLVESGGGLVQAGGSLTLSCAASGLPFGLYILGWIRRAPGKERDFVAAISRSGRDTVYANSVKGRFTISRDNAKNMVYLRMDNLRPEDTAAYYCAVDSVPRGTPTITESEYAIWGQGTLVTVSS | no binding | no binding |  |  |  |  | binding result [3]: no binding; EC50 [4]: 380 nM; EC50 [5]: 470 nM; binding result [7]: no binding (tested: 1 µM)
4.1 nM | 4.1 nM | no binding | no binding | no binding | no binding | no binding | no binding |  |  |  |  |  |  | F0103464B09 (parental)-FLAG-HIS6 (VHH, also called F103464B09) VHH: EVQLVESGGGLVQPGGSLRLSCATTSRAFIRDVFTGWYRRVPGKERELVARIYNGGNTNYADFAKGRFSISRDNAKKMVTLRMSNLKPEDTGVYYCLFSGTINTGREYRSGDYWGQGTLVTVSS | no binding | no binding |  |  |  |  | EC50 [3]: 27 nM; binding result [25]: binds
5.5 nM | 5.4 nM | no binding | no binding | no binding | no binding | no binding | no binding |  |  |  |  |  |  | F0103265B04 (parental)-FLAG-HIS6 (VHH) VHH: EVQLVESGGGLVQPGGSLRLSCAAPSFIFSNNYMEWYRQAPGKQRDWVARITGRGNTNYLDSVKGRFTISRDDAKNTVYLEIDSLKPEDTAVYYCSALWYGGRAWGKGTLVTVSS | no binding | no binding |  |  |  |  | binding result [3]: no binding; EC50 [4]: 8.1 nM; EC50 [5]: 8.5 nM; binding result [7]: no binding (tested: 1 µM)

Further lines, the binder ahead of its results:

Binder | EC50 [1] | EC50 [2] | binding result [8] | binding result [9] | binding result [11] | binding result [12] | binding result [13] | binding result [14] | MFI [15] | MFI [16] | MFI [18] | MFI [19] | MFI [21] | MFI [23] | binding result [6] | binding result [10] | MFI [17] | MFI [20] | MFI [22] | MFI [24] | other results
F0103PMP505D08 (bispecific antibody, crude periplasmic extract; also called F103275B05(N93R)-50GS-F0103505D08 bivalent ISVD) EVQLVESGGGLVQPGGSLRLSCAASGSIFNINSMAWYRRAPGKQRELVASSTNGGSTNYADSVKGRFTISRDNAKRVYLQMNSLTPEDTAVYYCRALLQPSIYDISRTYWGQGTLVTVSSGGGGSGGGGSGGGGSGGGGSGGGGSGGGGSGGGGSGGGGSGGGGSGGGGSEVQLVESGGGLVQAGGSLRLSCVTSGRTSDLSTMNWFRQAPGKEREFVARITRRGSTYYAESVKERFIISRDNAKNTVYLQMNSLKPEDTANYYCTAASEMGYHYRGQGTQVTVSSAAADYKDHDGDYKDHDIDYKDDDDKGAAHHHHHHKAAGGGGG |  |  |  |  |  |  |  |  | 78400 MFI | 136000 MFI | 95400 MFI | 108000 MFI | 22500 MFI | 106000 MFI |  |  | 1200 MFI | 964 MFI | 845 MFI | 891 MFI | 
F0103PMP495F09 (bispecific antibody, crude periplasmic extract; also called F103275B05(N93R)-50GS-F0103495F09 bivalent ISVD) EVQLVESGGGLVQPGGSLRLSCAASGSIFNINSMAWYRRAPGKQRELVASSTNGGSTNYADSVKGRFTISRDNAKRVYLQMNSLTPEDTAVYYCRALLQPSIYDISRTYWGQGTLVTVSSGGGGSGGGGSGGGGSGGGGSGGGGSGGGGSGGGGSGGGGSGGGGSGGGGSEVQLVESGGGLVQAGSSLSLSCAASGRALSTYAMGWFRQAPGKEREFVARISRSGITTYYTDSVKGRFTISRDRAKDTVYLQMNSLKPEDTAIYLCAADASTNPAGYYLRNRYDYWGQGTLVTVSSAAADYKDHDGDYKDHDIDYKDDDDKGAAHHHHHHKAAGGGGG |  |  |  |  |  |  |  |  | 45100 MFI | 128000 MFI | 93300 MFI | 90400 MFI | 6280 MFI | 35600 MFI |  |  | 976 MFI | 930 MFI | 645 MFI | 483 MFI | 
F0103PMP500E03 (bispecific antibody, crude periplasmic extract; also called F103275B05(N93R)-50GS-F0103500E03 bivalent ISVD) EVQLVESGGGLVQPGGSLRLSCAASGSIFNINSMAWYRRAPGKQRELVASSTNGGSTNYADSVKGRFTISRDNAKRVYLQMNSLTPEDTAVYYCRALLQPSIYDISRTYWGQGTLVTVSSGGGGSGGGGSGGGGSGGGGSGGGGSGGGGSGGGGSGGGGSGGGGSGGGGSEVQLVESGGGLVQAGGSLRLSCAASGRTFSRYQMGWFRQAPGKEREFVAYISWSGSTRYVDSVKGRFTISRDNAKNTVYLQMNSLKPEDTAVYHCAAGTAGIISSRPETYDSWGQGTQVTVSSAAADYKDHDGDYKDHDIDYKDDDDKGAAHHHHHHKAA |  |  |  |  |  |  |  |  | 47300 MFI | 87200 MFI | 33700 MFI | 96900 MFI | 21500 MFI | 22400 MFI |  |  | 1110 MFI | 975 MFI | 852 MFI | 521 MFI | 
